{
  "source": "patent US20030224458A1",
  "about": "(published 2003)",
  "binders": {"B1": {"name": "Peptide modulator of HGPRBMY23 LFASSDWSSFPVLVF (peptide)", "peptide": "LFASSDWSSFPVLVF", "modifications": "also: synthetic versions N-acetylated, C-terminal amide, also phage-displayed", "notes": "Synthetic versions are described as N-acetylated peptides made on Knorr amide resin (C-terminal amide)"}, "B2": {"name": "Peptide modulator of HGPRBMY23 SRVSGAKVWFLSNWS (peptide)", "peptide": "SRVSGAKVWFLSNWS", "modifications": "also: synthetic versions N-acetylated, C-terminal amide, also phage-displayed", "notes": "as for B1"}, "B3": {"name": "Peptide modulator of HGPRBMY23 FVGTFDWQSYPLLSF (peptide)", "peptide": "FVGTFDWQSYPLLSF", "modifications": "not fully specified (N-terminus, C-terminus)", "notes": "as for B1"}},
  "note": "Ends that are not written are not given here.",
  "data": [
    {"target": "T1, HGPRBMY23 polypeptide (novel human G-protein coupled receptor) (human, UniProt Q96P68 1-337)", "T1 construct": "For phage panning it was expressed on CHO-K1 cells from the pcDNA3.1 Hygro-HGPRBMY23 construct; For immunohistochemistry it was the native protein in paraffin-embedded, formalin-fixed tissue sections; also called GPCR92", "T1 sequence (Q96P68 whole entry)": "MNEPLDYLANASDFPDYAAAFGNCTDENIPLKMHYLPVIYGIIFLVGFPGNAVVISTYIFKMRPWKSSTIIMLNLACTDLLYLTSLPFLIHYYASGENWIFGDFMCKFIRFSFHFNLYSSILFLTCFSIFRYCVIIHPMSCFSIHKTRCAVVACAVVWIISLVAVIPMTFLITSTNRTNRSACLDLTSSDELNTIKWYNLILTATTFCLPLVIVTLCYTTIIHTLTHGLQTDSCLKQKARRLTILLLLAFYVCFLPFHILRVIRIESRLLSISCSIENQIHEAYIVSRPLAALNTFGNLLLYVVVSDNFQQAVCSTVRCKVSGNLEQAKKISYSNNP", "test": "phage display panning on CHO-K1 cells transfected with HGPRBMY23, after preadsorption on integrin and parental cells", "protocol": "Typically, this corresponded to one P175 flask with near-confluent growth. A similar number of parental cells were grown for preadsorption. One day prior to panning, two or three 96-well Immulon plates were coated integrin. Plates were coated overnight at 4° C. in NaHCO₃, pH 9.5, with ˜50 ng of αVβ3 integrin (Chemicon; Cat. #CC1020) per well per library.\nOn the day of panning, growth medium was discarded and cells were washed with 10 ml PBS by allowing the buffer to flow over the cells. The PBS was removed and 10 ml Tris-EDTA detaching buffer (Gibco Cat. #13150-016; no trypsin) was added for 2 min. Plates were tapped and/or pipetted up and down to detach cells. This was done quickly to minimize the exposure of the cells to this reagent. Cells were pelleted by centrifugation at 3K, and then washed with 20 ml PBS. Cells were resuspended cells in PBS with 2% milk blocking agent plus protease inhibitor (EDTA-free; Roche Cat. #1 873 580). For each library, cell suspensions of ˜500 ul were used. Cells were blocked for 30-60 min with gentle rocking at room temperature. The integrin-coated wells were washed 3× in PBST, then blocked with 2% BSA in PBS for 30 min or more. To preadsorb against integrin, input phage was added to the integrin-coated wells, and incubated for 30 min or more.\nAt this stage, the blocked parental cells were divided into the required number of aliquots (500 ul aliquot/library). The phage supernatants were added from the integrin-preadsorption step. Preadsorption against the parental cells was carried out for 30 min or more with gentle rocking. The blocked transfected cells were divided into the required number of aliquots (500 ul aliquot per library). The transfected cells were pelleted, and the supernatant was discarded. The phage supernatants from the two preadsorption steps were added, and cells were incubated with gentle rocking for 2 h or more. Cells were washed 6-8×with PBST at 5 min intervals. Each wash was performed by gently pipetting the cells up and down, and cells were centrifuged at low speed. […]", "values": [
      {"binder": "B1", "binding result": "binds"},
      {"binder": "B2", "binding result": "binds"},
      {"binder": "B3", "binding result": "binds"}
    ]}
  ]
}
